From patent US9888679B2, “Protection of progenitor cells and regulation of their differentiation” (Proteobioactives Pty Ltd, priority 2007, dated 2018)
Entries after “also recorded” stand apart in the source; their conditions may differ.

Key:
[1] = tested on: ATDC5 cell; test: Kinetics of ATDC5 cell growth over 13 days; type: cell-based, murine; conditions: rhNC4 (batch PBA-1200P) 5 ug/ml or Insulin 10 ug/ml; 20,000 cells per well at Day 0; FIG. 30
Protocol: FIG. 30. A bar graph of the kinetics of ATDC5 cell growth induced by rhNC4 (batch PBA-1200P) (5 ug/ml) or Insulin (10 ug/ml) relative to control over 13 days. 20,000 cells per well were seeded at Day 0 (Start) with medium changes every 48 hrs. Insulin treated cultures reached confluence on day 6 and PBA-1200P on day 9. Control cultures also reached confluence on day 9 but in contrast to cultures containing insulin or PBA-1200P ceased to undergo replication.

[2] = tested on: Murine ATDC5 cell line; test: Proteoglycan biosynthesis (35S-GAG) in pellet cultures; type: cell-based; conditions: pellet cultures, FIG. 22
Text: FIG. 12. A bar graph of the concentration dependent effects of Pentosan Polysulfate (PPS), on the biosynthesis of Proteoglycans (PGs) as determined by the incorporation of radioactively labelled sulfate into the sulfated glycosaminoglycans (^35S-GAG) of PGs in 6 day pellet cultures of murine progenitor cells (ADTC-5). *=p<0.05 relative to control.
FIG. 22. A bar graph of the concentration dependent effects of rhNC4 (batch PBA-1202P) expressed by K. lactis, in the absence (maintenance media, MM) and presence of insulin (10 micrograms/mL) (differentiation media, DM), on the biosynthesis of Proteoglycans PGs) in pellet cultures of ATDC5 cells. Data is shown as the % change relative to controls taken to be 100%.
Murine Progenitor cells (cell lines C3H10T1/2 or ATDC5) purchased from RIKEN Cell Bank (Tsukuba, Japan) or human immunoselected Stro-1+ Progenitor cells (Mesoblast Ltd, Melbourne, Australia) were seeded in 2 ml screw-capped sterile centrifuge tubes and the total volume made-up to 1 ml with DMEM-High glucose medium containing 10% FBS. Progenitor cells were then centrifuged at 500 g for 10 min in a swing-out rotor at room temperature. The screw caps were loosened and the tubes placed in an incubator at 37° C., in a 5% CO2/95% air moist atmosphere. The pellets generally formed within 24 hours. Medium was changed daily in the first two days, then once every 2-3 days thereafter. On day 5 the medium was removed and to each tube was added 1 ml with DMEM-High glucose medium containing 10% FBS, 5.0 μCi/ml ^35S-H2SO4 and various concentrations of PPS (0, 0.1, 0.5, 1.0, 2.5, 5.0, 10.0, 20.0, μg/ml) (FIG. 12-15) or rhNC4 (0, 0.1, 0.5, 1.0, 2.0 μg/ml) (FIG. 22). Triplicate cultures were used for all concentration of drugs. The screw caps were loosened and the tubes placed in an incubator at 37° C., in a 5% CO2/95% moist air atmosphere […]. On day 6, 200 μl of stock papain solution [2.5 mg/ml papain, 7.9 mg/ml L-Cystein in papain buffer (0.1 M NaAC, 5 mM EDTA, pH6.0)] was added to each tube. The tubes were tightly capped and incubated at 65° C. for 2 hours. After papain digestion, 4 replicates of 200 μl of papain digested solution were separately transferred to a 96-well micro-titre plate (200 μl/well). The remaining solution was used for the DNA fluorometric assays which were undertaken in triplicate as described above. Biosynthesis of ^35S-GAGs was determined as described for the monolayer cultures and the results expressed as ^35-S-GAGs/μg DNA.
Data is shown as the % of controls taken to be 100%.

[3] = tested on: murine ATDC5 progenitor cells; test: Proteoglycan biosynthesis (35S-GAG) in monolayer cultures, maintenance or differentiation media; type: cell-based
Text: (§1) FIG. 21. A bar graph of the concentration dependent effects of rhNC4 (batch PBA-1202P) expressed by K. lactis, in the absence (maintenance media, MM) and presence of insulin (10 micrograms/mL) (differentiation media, DM), on the biosynthesis of Proteoglycans (PGs) as determined by the incorporation of radioactively labelled sulfate into the sulfated glycosaminoglycans (^35S-GAG) of PGs after 3 day culture with Murine ATDC5 progenitor cells. The data was expressed as % change relative to control cultures that contained no rhNC4. P<0.05 was statistically significant relative to control cultures.
FIG. 24. A bar graph of the concentration dependent effects of combinations of rhNC4 (batch PBA-1202P) and Pentosan Polysulfate (PPS) on the biosynthesis of 35S-PGs by monolayer cultures of Murine ATDC5 progenitor cells. Data is expressed relative to control (maintenance media, MM) which was taken as 100%.
as §1, with “31.” for “21.”
FIG. 32. A bar graph of the concentration dependent effects of Pentosan Polysulfate (PPS), in the presence of insulin (10 micrograms/mL), on the biosynthesis of Proteoglycans PGs) as determined by the incorporation of radioactively labelled sulfate into the sulfated glycosaminoglycans (^35S-GAG) of PGs after 3 day culture with Murine ATDC5 progenitor cells. The data was expressed as ^35S-GAG radioactivity as counts per minute (CPM) and decays per minute (DPM) relative to control cultures that contained no PPS. P<0.05 was statistically significant relative to control cultures.
Murine Progenitor cells (cell lines C3H10T1/2 or ATDC5) purchased from RIKEN Cell Bank (Tsukuba, Japan) or human immunoselected Stro-1+ Progenitor cells (Mesoblast Ltd, Melbourne, Australia) were seeded into 50 mL plastic culture flasks containing 1:1 high glucose DMEM/Ham's F-12 medium (Invitrogen) supplemented with 10% FBS (Sigma) and incubated at 37° C., in 5% CO2. […] The experiments were generally terminated after 48 hours incubation when proteoglycan biosynthesis was determined by measuring the incorporation of ^35SO4 into the glycosaminoglycans (^35S-GAGs) as described below.
The data was expressed as % change relative to control cultures that contained no rhNC4. […]

B1: rhNC4: recombinant human non collagenous NC4 domain of the alpha-1 chain of type IX collagen, expressed by K. lactis (protein, listed as Homo sapiens)
chain: AVKRRPRFPVNSNSNGGNELCPKIRIGQDDLPGFDLISQFQVDKAASRRAIQRVVGSATLQVAYKLGNNVDFRIPTRNLYPSGLPEEYSFLTTFRMTGSTLKKNWNIWQIQDSSGKEQVGIKINGQTQSVVFSYKGLDGSLQTAAFSNLSSLFDSQWHKIMIGVERSSATLFVDCNRIESLPIKPRGPIDIDGFAVLGKLADNPQVSVPFELQWMLIHCDPLRPRRETCHELPARITPSQTTDER
Which “day on which cultures reached confluence” value [1] does the source give for B1 here?
Its value is 9 days.

And the “rhNC4 concentration producing the optimum effect on PG synthesis” value ([2]; maintenance media)?
The value was 0.5 micrograms/mL.

And the PG synthesis ([2]; rhNC4)?
Its PG synthesis is “stimulatory effect”.

And the “rhNC4 concentration of maximum effects on PG synthesis” value ([3]; maintenance and differentiation media, FIG. 21)?
Its value is 1 microgram/mL.

What about the PG synthesis ([3]; rhNC4, absence (maintenance media) and presence of insulin (differentiation media), 3 day culture, FIG. 21/31) of the same molecule?
Its PG synthesis is “stimulated PG synthesis; also recorded: concentration dependent stimulation of PG synthesis”.
